This note sets out measurements from paper PMC3078593, “Multifunctional transcription factor TFII-I is an activator of BRCA1 function” (British Journal of Cancer, 2011).

For this test, the target named is GST-BRCT. The test can be described thus: cell-based or functional assay.

B1: GST-tagged TFII-I (wild type) (natural protein, UniProt P78347-2 1-957, looked up)
chain: MAQVAMSTLPVEDEESSESRMVVTFLMSALESMCKELAKSKAEVACIAVYETDVFVVGTERGRAFVNTRKDFQKDFVKYCVEEEEKAAEMHKMKSTTQANRMSVDAVEIETLRKTVEDYFCFCYGKALGKSTVVPVPYEKMLRDQSAVVVQGLPEGVAFKHPENYDLATLKWILENKAGISFIIKRPFLEPKKHVGGRVMVTDADRSILSPGGSCGPIKVKTEPTEDSGISLEMAAVTVKEESEDPDYYQYNIQGSHHSSEGNEGTEMEVPAEDDDYSPPSKRPKANELPQPPVPEPANAGKRKVREFNFEKWNARITDLRKQVEELFERKYAQAIKAKGPVTIPYPLFQSHVEDLYVEGLPEGIPFRRPSTYGIPRLERILLAKERIRFVIKKHELLNSTREDLQLDKPASGVKEEWYARITKLRKMVDQLFCKKFAEALGSTEAKAVPYQKFEAHPNDLYVEGLPENIPFRSPSWYGIPRLEKIIQVGNRIKFVIKRPELLTHSTTEVTQPRTNTPVKEDWNVRITKLRKQVEEIFNLKFAQALGLTEAVKVPYPVFESNPEFLYVEGLPEGIPFRSPTWFGIPRLERIVRGSNKIKFVVKKPELVISYLPPGMASKINTKALQSPKRPRSPGSNSKVPEIEVTVEGPNNNNPQTSAVRTPTQTNGSNVPFKPRGREFSFEAWNAKITDLKQKVENLFNEKCGEALGLKQAVKVPFALFESFPEDFYVEGLPEGVPFRRPSTFGIPRLEKILRNKAKIKFIIKKPEMFETAIKESTSSKSPPRKINSSPNVNTTASGVEDLNIIQVTIPDDDNERLSKVEKARQLREQVNDLFSRKFGEAIGMGFPVKVPYRKITINPGCVVVDGMPPGVSFKAPSYLEISSMRRILDSAEFIKFTVIRPFPGLVINNQLVDQSESEGPVIQESAEPSQLEVPATEEIKETDGSSQIKQEPDPTW
On to B1, for which the “luciferase activity of 17M8-AdMLP-luc driven by GAL4-BRCT (GAL-BRCT) in COS7 cells, with TFII-I expressed” value was ≤ 2 fold.
